In the Immune Epitope Database (IEDB) one finds Kd data, which are given here for eleven sequences.

Experiment [1] concerns the target HLA-B*58:01. Put plainly: IEDB peptide-MHC binding, purified MHC/competitive/radioactivity; filed as Kd, often an IC50 or EC50 that approximates it; ≥ and ≤ were set here for values at or beyond the usual limits of such assays.
Experiment [2] has as its target HLA-B*58:01. As to the kind of experiment: IEDB peptide-MHC binding, purified MHC/direct/fluorescence; filed as Kd, often an IC50 or EC50 that approximates it; ≥ and ≤ were set here for values at or beyond the usual limits of such assays.
In the next experiment the target is HLA-B*15:01. The description is as above.
A further experiment has as its target HLA-B*08:03. The description is as above.
The next experiment deals with HLA-B*07:02. Described as above.
Experiment [3] has as its target HLA-A*02:01. The description is as above. The settings on record: source organism: Marburg virus - Musoke, Kenya, 1980.
A further experiment addresses HLA-A*01:01. Described as above.
A further experiment addresses HLA-B*40:01. The experiment is described as above. Particulars: source organism: Marburg virus - Musoke, Kenya, 1980.
Experiment [4] addresses HLA-A*26:01. The experiment is described as above. Particulars: source organism: Ravn virus - Ravn, Kenya, 1987.
The next experiment concerns the target HLA-A*26:03. The experiment is described as above.
Experiment [5] concerns the target HLA-A*11:01. Described as above. Particulars: source organism: Marburg virus - Musoke, Kenya, 1980.
In a further experiment the target is HLA-B*27:05. Described as above.
A further experiment addresses HLA-B*08:01. Described as above. Particulars: source organism: Ravn virus - Ravn, Kenya, 1987.
A further experiment deals with HLA-B*48:01. The experiment is described as above.
The target of a further experiment is HLA-A*69:01. The description is as above.
The target of a further experiment is HLA-A*03:01. Described as above. Particulars: source organism: Marburg virus - Musoke, Kenya, 1980.
For experiment [6], the target named is HLA-B*57:01. The experiment is described as above.
In experiment [7] the target is HLA-A*26:02. The experiment is described as above. Particulars: source organism: Ravn virus - Ravn, Kenya, 1987.
A further experiment deals with HLA-B*46:01. The experiment is described as above.
For another experiment, the target named is HLA-A*31:01. The experiment is described as above.
The next experiment concerns the target HLA-B*18:01. Described as above. The settings on record: source organism: Marburg virus - Musoke, Kenya, 1980.
The next experiment concerns the target HLA-B*15:17. The description is as above.
For the next experiment, the target named is HLA-A*68:02. The experiment is described as above.
For a further experiment, the target named is HLA-B*08:02. The experiment is described as above. Particulars: source organism: Orthomarburgvirus marburgense.
The target in the next experiment is HLA-B*15:09. Described as above. Particulars: source organism: Orthomarburgvirus marburgense.
The target of another experiment is HLA-B*39:01. Described as above. The settings on record: source organism: Orthomarburgvirus marburgense.
The target in another experiment is HLA-A*30:01. Put plainly: IEDB peptide-MHC binding, purified MHC/competitive/fluorescence; filed as Kd, often an IC50 or EC50 that approximates it; ≥ and ≤ were set here for values at or beyond the usual limits of such assays. Particulars: source organism: Orthomarburgvirus marburgense.
The target in another experiment is HLA-A*02:06. The description is as above. The settings on record: source organism: Orthomarburgvirus marburgense.
Experiment [8] has as its target HLA-A*02:01. The experiment is described as above. The settings on record: source organism: Orthomarburgvirus marburgense.
For experiment [9], the target named is HLA-A*26:01. The description is as above. The settings on record: source organism: Orthomarburgvirus marburgense.
Experiment [10] has as its target HLA-A*11:01. The experiment is described as above. The settings on record: source organism: Orthomarburgvirus marburgense.
Experiment [11] has as its target HLA-A*26:02. The experiment is described as above. Particulars: source organism: Orthomarburgvirus marburgense.
The target in experiment [12] is HLA-B*57:01. Put plainly: IEDB peptide-MHC binding, purified MHC/competitive/radioactivity; filed as Kd, often an IC50 or EC50 that approximates it; ≥ and ≤ were set here for values at or beyond the usual limits of such assays.
Another experiment concerns the target HLA-A*24:03. As to the kind of experiment: IEDB peptide-MHC binding, purified MHC/direct/fluorescence; filed as Kd, often an IC50 or EC50 that approximates it; ≥ and ≤ were set here for values at or beyond the usual limits of such assays. The settings on record: source organism: Mycobacterium tuberculosis.
Another experiment addresses HLA-C*05:01. Described as above. Particulars: source organism: Mycobacterium tuberculosis C.
For another experiment, the target named is HLA-B*35:01. As to the kind of experiment: IEDB peptide-MHC binding, purified MHC/competitive/radioactivity; filed as Kd, often an IC50 or EC50 that approximates it; ≥ and ≤ were set here for values at or beyond the usual limits of such assays. The settings on record: source organism: Dengue virus 4 Philippines/H241/1956.
Another experiment has as its target HLA-B*53:01. The experiment is described as above. The settings on record: source organism: Dengue virus 4 Philippines/H241/1956.
Where [13] appears, read: source organism: Marburg virus - Musoke, Kenya, 1980.
Where [14] appears, read: source organism: Ravn virus - Ravn, Kenya, 1987.
Setting [15] is: source organism: Lake Victoria marburgvirus - Popp.
Setting [16] is: source organism: Orthomarburgvirus marburgense.
Where [17] appears, read: source organism: Dengue virus 3 Martinique/1243/1999.
[18] abbreviates: source organism: Dengue virus 1 Brazil/97-11/1997.
Where [19] appears, read: source organism: Dengue virus 4 Philippines/H241/1956.

What is called Kd is the equilibrium constant for the complex coming apart. AAVLLLVTHY: the Kd with HLA-B*58:01 [1] (source organism: Dengue virus 3 Singapore/8120/1995) was determined as 4140 nM.

CVFKFIVAK: the Kd in the experiment with HLA-B*58:01 [2] (setting [13]) is no less than 20 µM; in the experiment with HLA-B*15:01 (setting [13]), no less than 20000 nM; in the experiment with HLA-B*08:03 (setting [14]), no less than 20 µM; in the experiment with HLA-B*07:02 (setting [13]), no less than 20 µM; in the experiment with HLA-A*02:01 [3], no less than 20 µM; in the experiment with HLA-A*01:01 (setting [13]), no less than 20000 nM. Further, the Kd with HLA-B*40:01 was no less than 20 µM; with HLA-A*26:01 [4], no less than 20 µM; with HLA-A*26:03 (setting [14]), no less than 20 µM; in the experiment with HLA-A*11:01 [5] it was 31 nM; with HLA-B*27:05 (setting [13]), no less than 20 µM; with HLA-B*08:01, no less than 20 µM. Also, the Kd is no less than 20 µM with HLA-B*48:01 (setting [13]); no less than 20 µM with HLA-A*69:01 (setting [13]); 391 nM with HLA-A*03:01; no less than 20 µM in the experiment with HLA-B*57:01 [6] (setting [13]); no less than 20 µM with HLA-A*26:02 [7]; no less than 20 µM with HLA-B*46:01 (setting [13]). The Kd in the experiment with HLA-A*31:01 (setting [13]) is 275 nM; with HLA-B*18:01, no less than 20 µM; with HLA-B*15:17 (setting [13]), no less than 20000 nM; in the experiment with HLA-A*68:02 (setting [13]), no less than 20 µM.

Regarding FLMRNAIQY, the dissociation constant (Kd) in the experiment with HLA-B*58:01 [2] (setting [15]) is no less than 20 µM; with HLA-B*15:01 (setting [15]), 188 nM; with HLA-B*08:03 (setting [16]), no less than 20 µM; with HLA-B*07:02 (setting [15]), no less than 20 µM; in the experiment with HLA-A*01:01 (setting [15]), 37.2 nM; with HLA-B*08:02 it was no less than 20 µM. The Kd in the experiment with HLA-A*26:03 (setting [16]), with HLA-B*27:05 (setting [15]), in the experiment with HLA-B*15:09, in the experiment with HLA-B*48:01 (setting [15]), with HLA-A*69:01 (setting [15]) and in the experiment with HLA-B*57:01 [6] (setting [15]) was no less than 20 µM in each case. Further, the Kd is no less than 20 µM with HLA-B*39:01; 4.14 µM in the experiment with HLA-B*46:01 (setting [15]); no less than 20000 nM in the experiment with HLA-A*31:01 (setting [15]); 157 nM with HLA-B*15:17 (setting [15]); no less than 20 µM with HLA-A*68:02 (setting [15]); 2770 nM with HLA-A*30:01. In addition, the dissociation constant (Kd) was 2270 nM in the experiment with HLA-A*02:06; 254 nM in the experiment with HLA-A*02:01 [8]; 2580 nM in the experiment with HLA-A*26:01 [9]; 3.87 µM with HLA-A*11:01 [10]; 1920 nM with HLA-A*26:02 [11].

Regarding KAAVEDEDF, in the experiment with HLA-B*58:01 [1] (setting [17]), the Kd is 76.6 nM.

With KTSAGVNMCT, the Kd with HLA-B*58:01 [1] (setting [18]) amounted to 4520 nM; in the experiment with HLA-B*57:01 [12] (setting [18]), 1130 nM.

Turning to LGKAYAQMW, the Kd with HLA-B*57:01 [12] (setting [17]) worked out at 207 nM.

Take LYDAVAALF: the Kd in the experiment with HLA-A*24:03 was no more than 0.1 nM; with HLA-C*05:01, 73 nM.

MAILGETAW: the Kd with HLA-B*58:01 [1] (setting [19]) came out at 3.47 nM; with HLA-B*35:01, 102 nM; with HLA-B*53:01 it was 7.05 nM; with HLA-B*57:01 [12] (setting [19]), 23.5 nM.

For the sequence PSVVETLEQM, the Kd with HLA-B*58:01 [1] (setting [18]) worked out at 321 nM.

Regarding RTSCLQKQSH, the Kd with HLA-B*57:01 [12] (setting [19]) came to 610 nM.

TTRLENIMW: in the experiment with HLA-B*57:01 [12] (setting [19]), the dissociation constant (Kd) turned out to be 13.3 nM.
